Results from US20260007748A1 (KELONIA THERAPEUTICS, published 2026).
Residue numbers refer to the chain shown, from its start.

T1: B cell maturation antigen (BCMA) (human, UniProt Q02223 1-184)
T1 construct: BCMA as carried by RPMI-8226 (high BCMA) and Daudi (low BCMA) tumor cells; also called TNFRSF17; tumor necrosis factor receptor superfamily member 17
T1 sequence: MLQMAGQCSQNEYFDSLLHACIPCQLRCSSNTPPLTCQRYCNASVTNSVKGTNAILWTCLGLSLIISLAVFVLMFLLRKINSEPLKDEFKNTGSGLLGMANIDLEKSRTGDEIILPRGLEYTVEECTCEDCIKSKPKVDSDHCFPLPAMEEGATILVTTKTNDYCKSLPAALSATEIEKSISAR

B1: anti-BCMA CAR of recombinant lentivirus LV 10 (SEQ ID NO: 274) (other)
chain: EVQLLESGGGLVQPGGSLRLSCAASGFTFESEAMSWYRQAPGKERELVSVITSEGSTYYADSVKGRFTISRDNSKNTLYLQMNSLRAEDTAVYYCAHIEWETRLNWGQGTQVTVSSTTTPAPRPPTPAPTIASQPLSLRPEACRPAAGGAVHTRGLDFACDIYIWAPLAGTCGVLLLSLVITLYCKRGRKKLLYIFKQPFMRPVQTTQEEDGCSCRFPEEEEGGCELRVKFSRSADAPAYQQGQNQLYNELNLGRREEYDVLDKRRGRDPEMGGKPRRKNPQEGLYNELQKDKMAEAYSEIGMKGERRRGKGHDGLYQGLSTATKDTYDALHMQALPPR
notes: Chimeric antigen receptor on transduced human PBMCs: anti-BCMA VHH, CD8α hinge and TM, CD137 costim, CD3ζ
B2: anti-BCMA CAR of recombinant lentivirus LV 12 (SEQ ID NO: 276) (other)
chain: EVQLLESGGGLVQPGGSLRLSCAASGFTFEDYAMSWFRQAPGKEREGVSAISGKGGSTYYADSVKGRFTISRDNSKNTLYLQMNSLRAEDTAVYYCAVLDEEAGAEGGYWGQGTQVTVSSTTTPAPRPPTPAPTIASQPLSLRPEACRPAAGGAVHTRGLDFACDIYIWAPLAGTCGVLLLSLVITLYCKRGRKKLLYIFKQPFMRPVQTTQEEDGCSCRFPEEEEGGCELRVKFSRSADAPAYQQGQNQLYNELNLGRREEYDVLDKRRGRDPEMGGKPRRKNPQEGLYNELQKDKMAEAYSEIGMKGERRRGKGHDGLYQGLSTATKDTYDALHMQALPPR
notes: as for B1
B3: anti-BCMA CAR of recombinant lentivirus LV 13 (SEQ ID NO: 277) (other)
chain: B2 chain with E30D, D31R, G53T, K54S, G56D
notes: Chimeric antigen receptor on transduced human PBMCs: anti-BCMA VHH, CD8α hinge and TM, CD137 costim, CD3ζ; also called LV 13.1 to LV 13.9
B4: anti-BCMA CAR of recombinant lentivirus LV 5 (SEQ ID NO: 263) (other)
chain: QVQLVESGGGLVKPGGSLRLSCAASGFTFSDYYMSWIRQAPGKGLEWVSYISSSGSTIYYADSVKGRFTISRDNAKNSLYLQMNSLRAEDTAVYYCARDQGNYGVDVWGQGTTVTVSSGGGGSGGGGSGGGGSGGGGSDIQMTQSPSTLSASVGDRVTITCRASQSISSWLAWYQQKPGKAPKLLIYEASSLESGVPSRFSGSGSGTEFTLTISSLQPDDFATYYCQQSDSHPITFGGGTKVEIKTTTPAPRPPTPAPTIASQPLSLRPEACRPAAGGAVHTRGLDFACDIYIWAPLAGTCGVLLLSLVITLYCKRGRKKLLYIFKQPFMRPVQTTQEEDGCSCRFPEEEEGGCELRVKFSRSADAPAYQQGQNQLYNELNLGRREEYDVLDKRRGRDPEMGGKPRRKNPQEGLYNELQKDKMAEAYSEIGMKGERRRGKGHDGLYQGLSTATKDTYDALHMQALPPR
notes: Chimeric antigen receptor on transduced human PBMCs: anti-BCMA scFv, CD8α hinge and TM, CD137 costim, CD3ζ; also called LV 5.1 to LV 5.9
B5: anti-BCMA CAR of recombinant lentivirus LV 7 (SEQ ID NO: 268) (other)
chain: DIQMTQSPSSLSASVGDRVTITCRASQSISSYLNWYQQKPGKAPKLLIYAASSLQSGVPSRFSGSGSGTDFTLTISSLQPEDFATYYCQQAHSSPITFGGGTKVEIKGGGGSGGGGSGGGGSGGGGSEVQLLESGGGLVQPGGSLRLSCAASGFTFSNYAMSWVRQAPGKGLEWVSAISGSGGSTYYADSVKGRFTISRDNSKNTLYLQMNSLRAEDTAVYYCARPGDGYYEGVYFDYWGQGTLVTVSSTTTPAPRPPTPAPTIASQPLSLRPEACRPAAGGAVHTRGLDFACDIYIWAPLAGTCGVLLLSLVITLYCKRGRKKLLYIFKQPFMRPVQTTQEEDGCSCRFPEEEEGGCELRVKFSRSADAPAYQQGQNQLYNELNLGRREEYDVLDKRRGRDPEMGGKPRRKNPQEGLYNELQKDKMAEAYSEIGMKGERRRGKGHDGLYQGLSTATKDTYDALHMQALPPR
notes: Chimeric antigen receptor on transduced human PBMCs: anti-BCMA scFv, CD8α hinge and TM, CD137 costim, CD3ζ
B6: anti-BCMA CAR of recombinant lentivirus LV 3 (SEQ ID NO: 259) (other)
chain: QVQLVESGGGVVQPGRSLRLSCAASGFTFSSYGMHWVRQAPGKGLEWVAVISYEGSNKYYADSVKGRFTISRDNSKNTLYLQMNSLRAEDTAVYYCARELGDGMDVWGQGTTVTVSSGGGGSGGGGSGGGGSGGGGSEIVLTQSPATLSLSPGERATLSCRASQSVSSYLAWFQQKPGQAPRLLIYDASNRATGIPARFSGSGSGTDFTLTISSLEPEDFAVYYCQQRVDLWTFGGGTKVEIKTTTPAPRPPTPAPTIASQPLSLRPEACRPAAGGAVHTRGLDFACDIYIWAPLAGTCGVLLLSLVITLYCKRGRKKLLYIFKQPFMRPVQTTQEEDGCSCRFPEEEEGGCELRVKFSRSADAPAYQQGQNQLYNELNLGRREEYDVLDKRRGRDPEMGGKPRRKNPQEGLYNELQKDKMAEAYSEIGMKGERRRGKGHDGLYQGLSTATKDTYDALHMQALPPR
notes: Chimeric antigen receptor on transduced human PBMCs: anti-BCMA scFv, CD8α hinge and TM, CD137 costim, CD3ζ; also called LV 3.1 to LV 3.9
B7: anti-BCMA CAR of recombinant lentivirus LV 11 (SEQ ID NO: 275) (other)
chain: EVQLLESGGGLVQPGGSLRLSCAASGFTFDEYTMHWFRQAPGKEREFVSAISGGGSETYYADSVKGRFTISRDNSKNTLYLQMNSLRAEDTAVYYCAAGGEEAGVGYWGQGTQVTVSSTTTPAPRPPTPAPTIASQPLSLRPEACRPAAGGAVHTRGLDFACDIYIWAPLAGTCGVLLLSLVITLYCKRGRKKLLYIFKQPFMRPVQTTQEEDGCSCRFPEEEEGGCELRVKFSRSADAPAYQQGQNQLYNELNLGRREEYDVLDKRRGRDPEMGGKPRRKNPQEGLYNELQKDKMAEAYSEIGMKGERRRGKGHDGLYQGLSTATKDTYDALHMQALPPR
notes: as for B1
B8: anti-BCMA CAR of recombinant lentivirus LV 1 (SEQ ID NO: 256) (other)
chain: EIVLTQSPATLSLSPGERATLSCRASQSVSSYLAWYQQKPGQAPRLLIYDASNRATGIPARFSGSGSGTDFTLTISSLEPEDFAVYYCQQRVVYPITFGGGTKVEIKGGGGSGGGGSGGGGSGGGGSQITLKESGPTLVKPTQTLTLTCTFSGFSLSTSGVGVGWIRQPPGKALEWLALIYWNDEKRYSPSLKSRLTITKDTSKNQVVLTMTNMDPVDTAVYYCARDEYGGFDIWGQGTMVTVSSTTTPAPRPPTPAPTIASQPLSLRPEACRPAAGGAVHTRGLDFACDIYIWAPLAGTCGVLLLSLVITLYCKRGRKKLLYIFKQPFMRPVQTTQEEDGCSCRFPEEEEGGCELRVKFSRSADAPAYQQGQNQLYNELNLGRREEYDVLDKRRGRDPEMGGKPRRKNPQEGLYNELQKDKMAEAYSEIGMKGERRRGKGHDGLYQGLSTATKDTYDALHMQALPPR
notes: Chimeric antigen receptor on transduced human PBMCs: anti-BCMA scFv, CD8α hinge and TM, CD137 costim, CD3ζ; Encoded with a CD8α signal peptide
B9: anti-BCMA CAR of recombinant lentivirus LV 2 (SEQ ID NO: 258) (other)
chain: B8 chain with V92F, V93D, E185D
notes: as for B5
B10: anti-BCMA CAR of recombinant lentivirus LV 18 (SEQ ID NO: 283) (other)
chain: EVQLLESGGGLVQPGGSLRLSCAASGFTFSSEGMSWVRQAPGKERELVSAISGSGDHTYYADSVRGRFTISRDNSKNTLYLQMNSLRAEDTAVYYCNALEGGPTTAIQPGGPDYWGQGTQVTVSSTTTPAPRPPTPAPTIASQPLSLRPEACRPAAGGAVHTRGLDFACDIYIWAPLAGTCGVLLLSLVITLYCKRGRKKLLYIFKQPFMRPVQTTQEEDGCSCRFPEEEEGGCELRVKFSRSADAPAYQQGQNQLYNELNLGRREEYDVLDKRRGRDPEMGGKPRRKNPQEGLYNELQKDKMAEAYSEIGMKGERRRGKGHDGLYQGLSTATKDTYDALHMQALPPR
notes: as for B1
B11: anti-BCMA CAR of recombinant lentivirus LV 9 (SEQ ID NO: 273) (other)
chain: EVQLLESGGGLVQPGGSLRLSCAASGFTFGSEAMSWVRQAPGKERELVSAISGSGEVTYYADSVKGRFTISRDNSKNTLYLQMNSLRAEDTAVYYCQRLVEAKRHWGQGTQVTVSSTTTPAPRPPTPAPTIASQPLSLRPEACRPAAGGAVHTRGLDFACDIYIWAPLAGTCGVLLLSLVITLYCKRGRKKLLYIFKQPFMRPVQTTQEEDGCSCRFPEEEEGGCELRVKFSRSADAPAYQQGQNQLYNELNLGRREEYDVLDKRRGRDPEMGGKPRRKNPQEGLYNELQKDKMAEAYSEIGMKGERRRGKGHDGLYQGLSTATKDTYDALHMQALPPR
notes: Chimeric antigen receptor on transduced human PBMCs: anti-BCMA VHH, CD8α hinge and TM, CD137 costim, CD3ζ; also called LV 9.1 to LV 9.9
B12: anti-BCMA CAR of recombinant lentivirus LV 15 (SEQ ID NO: 279) (other)
chain: EVQLLESGGGLVQPGGSLRLSCAASGFTFDSYTMSWYRQAPGKERELVSAISGHGDSTYYADSVKGRFTISRDNSKNTLYLQMNSLRAEDTAVYYCTRISITTEWLAGDYWGQGTQVTVSSTTTPAPRPPTPAPTIASQPLSLRPEACRPAAGGAVHTRGLDFACDIYIWAPLAGTCGVLLLSLVITLYCKRGRKKLLYIFKQPFMRPVQTTQEEDGCSCRFPEEEEGGCELRVKFSRSADAPAYQQGQNQLYNELNLGRREEYDVLDKRRGRDPEMGGKPRRKNPQEGLYNELQKDKMAEAYSEIGMKGERRRGKGHDGLYQGLSTATKDTYDALHMQALPPR
notes: as for B1
B13: anti-BCMA CAR of recombinant lentivirus LV 8 (SEQ ID NO: 270) (other)
chain: DIQMTQSPSSLSASVGDRVTITCQASQDIANYLNWYQQKPGKAPKLLIYDASNLETGVPSRFSGSGSGTDFTFTISSLQPEDIATYYCQQHFNLPLTFGGGTKVEIKGGGGSGGGGSGGGGSGGGGSQITLKESGPTLVKPTQTLTLTCTFSGFSLSTSGVGVGWIRQPPGKALEWLALIYWNDEKRYSPSLKSRLTITKDTSKNQVVLTMTNMDPVDTAVYYCAREGSHDYKSSNWFDPWGQGTLVTVSSTTTPAPRPPTPAPTIASQPLSLRPEACRPAAGGAVHTRGLDFACDIYIWAPLAGTCGVLLLSLVITLYCKRGRKKLLYIFKQPFMRPVQTTQEEDGCSCRFPEEEEGGCELRVKFSRSADAPAYQQGQNQLYNELNLGRREEYDVLDKRRGRDPEMGGKPRRKNPQEGLYNELQKDKMAEAYSEIGMKGERRRGKGHDGLYQGLSTATKDTYDALHMQALPPR
notes: Chimeric antigen receptor on transduced human PBMCs: anti-BCMA scFv, CD8α hinge and TM, CD137 costim, CD3ζ; also called LV 8.1 to LV 8.9

What follows are binders tested against T1, B cell maturation antigen (BCMA) (assay: co-culture of transduced PBMCs with RPMI-8226 (high BCMA) or Daudi (low BCMA) cells; recognition read by IFNγ).
Method: PBMCs transduced with recombinant lentiviral particles comprising a viral envelope expressing a mutated VSIV-G and a non-viral membrane-bound tropism polypeptide that binds CD3 and a lentiviral vector encoding an MNDU3 promoter operably linked to a polynucleotide encoding a CD8α signal peptide and an anti-BCMA CAR and a WPRE operably linked to the 3′ prime end of the polynucleotide encoding the anti-BCMA CAR (18 anti-BCMA CARs were evaluated) were co-cultured with Daudi cells (low BCMA expression) or RPMI-8226 cells (high BCMA expression) for 24 hours. After 24 hours, IFNγ levels in co-culture supernatant were measured and plotted as a function of % anti-BCMA CAR positive cells in the co-culture.
5×10⁴ PBMCs transduced with recombinant lentiviruses LV 1 to LV 19 were co-cultured with 5×10⁴ high BCMA-expressing tumor cells (RPMI-8226) or 5×10⁴ low BCMA-expressing tumor cells (Daudi) for 24 hours. Anti-BCMA CAR activity was assessed by harvesting co-culture supernatants and measuring IFNγ levels using a Meso Scale Discovery (MSD®) assay. The percentage of anti-BCMA CAR positive cells was plotted against IFNγ levels produced in co-culture. FIG. 2D.
B1: binds. B2: binds. B3: binds. B4: binds. B5: binds. B6: binds. B7: binds. B8: binds. B9: binds. B10: binds. B11: binds. B12: binds. B13: binds.
